Data published in publication PMC7785020, “A unique hormonal recognition feature of the human glucagon-like peptide-2 receptor” (Cell Research, 2020).
Values belong to the molecule of their own block, whether it stands above or below them.

What was measured:
[1] = target: Human GLP-2R WT (1–553) (human) (UniProt O95838)
[2] = target: GLP-2R (1-553) (WT) (human) (UniProt O95838)
[3] = target: T1, GLP-2R R242(ECL1)A (human) (UniProt O95838)
T1 sequence: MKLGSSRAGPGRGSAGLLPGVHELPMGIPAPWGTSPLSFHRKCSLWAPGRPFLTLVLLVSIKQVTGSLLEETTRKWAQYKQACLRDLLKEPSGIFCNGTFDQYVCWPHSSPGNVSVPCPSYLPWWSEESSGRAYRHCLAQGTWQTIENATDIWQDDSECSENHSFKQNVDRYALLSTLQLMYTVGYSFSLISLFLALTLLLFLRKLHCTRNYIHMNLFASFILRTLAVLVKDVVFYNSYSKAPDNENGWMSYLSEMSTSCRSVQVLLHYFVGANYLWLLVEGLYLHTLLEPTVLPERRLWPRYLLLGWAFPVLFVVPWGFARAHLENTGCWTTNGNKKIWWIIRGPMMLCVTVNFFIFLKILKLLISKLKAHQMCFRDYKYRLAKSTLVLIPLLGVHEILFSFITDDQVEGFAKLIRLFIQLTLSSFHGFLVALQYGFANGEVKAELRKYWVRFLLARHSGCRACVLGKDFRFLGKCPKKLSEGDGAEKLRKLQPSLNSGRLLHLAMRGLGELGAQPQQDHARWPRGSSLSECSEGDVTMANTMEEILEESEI

[4] = target: GLP-2R R242(ECL1)E (human) (UniProt O95838)
[5] = target: GLP-2R W249^ECL1A (human) (UniProt O95838)
[6] = target: T2, GLP-2R Y252(ECL1)A (human) (UniProt O95838)
T2 sequence: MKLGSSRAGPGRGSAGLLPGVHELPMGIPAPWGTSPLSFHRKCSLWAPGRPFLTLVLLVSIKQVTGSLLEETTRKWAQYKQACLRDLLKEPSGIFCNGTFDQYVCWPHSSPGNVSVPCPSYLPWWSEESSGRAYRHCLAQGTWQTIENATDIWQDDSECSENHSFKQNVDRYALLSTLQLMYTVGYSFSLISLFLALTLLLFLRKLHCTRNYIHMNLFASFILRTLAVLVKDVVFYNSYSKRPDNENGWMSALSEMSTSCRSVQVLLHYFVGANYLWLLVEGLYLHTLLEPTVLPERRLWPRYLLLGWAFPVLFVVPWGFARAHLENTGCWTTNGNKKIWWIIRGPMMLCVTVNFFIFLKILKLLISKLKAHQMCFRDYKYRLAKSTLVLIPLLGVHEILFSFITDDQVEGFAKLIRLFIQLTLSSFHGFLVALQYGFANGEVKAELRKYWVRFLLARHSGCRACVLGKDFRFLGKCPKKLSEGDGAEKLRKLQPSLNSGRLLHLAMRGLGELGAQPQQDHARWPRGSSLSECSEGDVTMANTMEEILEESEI

[7] = target: GLP-2R (1-553) (WT) (human) (UniProt O95838); remark: listed apart in the source
[8] = target: T1, GLP-2R R242(ECL1)A (human); remark: listed apart in the source
[9] = target: GLP-2R R242(ECL1)E (human) (UniProt O95838); remark: listed apart in the source
[10] = target: GLP-2R W249^ECL1A (human) (UniProt O95838); remark: listed apart in the source
[11] = target: T2, GLP-2R Y252(ECL1)A (human); remark: listed apart in the source
[12] = test system: GLP-2R; conditions: cited from earlier work
Description: Consistently, the truncated metabolite GLP-2(3–33) acts as a part ...

[13] = target: T3, GLP-2R R242^ECL1E (Homo sapiens, UniProt O95838, R242E); assay: cAMP accumulation, R242^ECL1E; assay type: cell-based; design: WT (1–553); expressed in transfected cells; HEK 293T (cAMP)
T3 sequence (O95838 1-553 R242E): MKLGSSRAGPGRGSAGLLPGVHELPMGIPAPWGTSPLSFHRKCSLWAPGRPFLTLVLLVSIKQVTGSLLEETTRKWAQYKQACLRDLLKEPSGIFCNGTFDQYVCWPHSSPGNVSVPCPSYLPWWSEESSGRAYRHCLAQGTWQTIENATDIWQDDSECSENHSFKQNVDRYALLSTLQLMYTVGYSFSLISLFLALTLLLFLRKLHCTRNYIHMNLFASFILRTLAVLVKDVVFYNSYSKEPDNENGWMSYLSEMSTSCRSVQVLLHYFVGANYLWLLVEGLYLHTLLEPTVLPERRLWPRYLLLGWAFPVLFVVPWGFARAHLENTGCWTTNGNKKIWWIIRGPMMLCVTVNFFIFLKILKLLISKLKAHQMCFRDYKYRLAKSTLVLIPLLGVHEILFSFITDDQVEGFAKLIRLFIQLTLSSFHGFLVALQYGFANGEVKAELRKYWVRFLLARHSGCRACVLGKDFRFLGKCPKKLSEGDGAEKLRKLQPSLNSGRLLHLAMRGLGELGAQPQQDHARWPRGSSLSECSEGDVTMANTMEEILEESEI
Description: (§1) They were seeded onto 6-well cell culture plates and transiently transfected with different GLP-2R constructs using Lipofectamine 2000 transfection reagent (Invitrogen, Carlsbad, CA, USA). After 24 h, the transfected cells were seeded onto 384-well microtiter plates (3000 cells per well) in HBSS supplemented with 5 mM HEPES, 0.1% (w/v) bovine serum albumin (BSA) and 0.5 mM 3-isobutyl-1- methylxanthine, and stimulated with increasing concentrations of GLP-2 for 30 min at RT. Eu and Ulight were diluted by cAMP detection buffer and added to the plates separately to terminate the reaction. Plates were incubated at RT for 60 min before measuring the fluorescence intensity at 620 nm and […] by an EnVision multilabel plate reader (PerkinElmer, Boston, USA).

[14] = target: T4, GLP-2R W249^ECL1A (Homo sapiens, UniProt O95838, W249A); assay: cAMP accumulation, W249^ECL1A; assay type: cell-based; design: WT (1–553); expressed in transfected cells; HEK 293T (cAMP)
T4 sequence (O95838 1-553 W249A): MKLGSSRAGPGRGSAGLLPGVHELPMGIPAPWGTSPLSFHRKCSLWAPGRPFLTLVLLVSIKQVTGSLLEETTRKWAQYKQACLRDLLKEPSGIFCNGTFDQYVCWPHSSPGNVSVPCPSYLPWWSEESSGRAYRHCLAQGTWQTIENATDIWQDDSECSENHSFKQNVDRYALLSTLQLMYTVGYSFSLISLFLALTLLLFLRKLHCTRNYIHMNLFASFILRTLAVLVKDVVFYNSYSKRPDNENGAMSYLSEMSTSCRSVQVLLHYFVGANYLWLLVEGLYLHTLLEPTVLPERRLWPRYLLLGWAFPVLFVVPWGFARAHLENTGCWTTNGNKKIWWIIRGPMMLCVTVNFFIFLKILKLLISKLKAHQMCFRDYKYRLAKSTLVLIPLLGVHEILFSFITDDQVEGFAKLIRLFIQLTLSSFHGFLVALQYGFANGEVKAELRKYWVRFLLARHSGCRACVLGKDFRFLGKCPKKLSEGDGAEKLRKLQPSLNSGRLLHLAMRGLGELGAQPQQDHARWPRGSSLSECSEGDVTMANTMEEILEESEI
Description: as §1

[15] = target: T5, GLP-2R Y252^ECL1A (Homo sapiens, UniProt O95838, Y252A); assay: cAMP accumulation, Y252^ECL1A; assay type: cell-based; design: WT (1–553); expressed in transfected cells; HEK 293T (cAMP)
T5 sequence (O95838 1-553 Y252A): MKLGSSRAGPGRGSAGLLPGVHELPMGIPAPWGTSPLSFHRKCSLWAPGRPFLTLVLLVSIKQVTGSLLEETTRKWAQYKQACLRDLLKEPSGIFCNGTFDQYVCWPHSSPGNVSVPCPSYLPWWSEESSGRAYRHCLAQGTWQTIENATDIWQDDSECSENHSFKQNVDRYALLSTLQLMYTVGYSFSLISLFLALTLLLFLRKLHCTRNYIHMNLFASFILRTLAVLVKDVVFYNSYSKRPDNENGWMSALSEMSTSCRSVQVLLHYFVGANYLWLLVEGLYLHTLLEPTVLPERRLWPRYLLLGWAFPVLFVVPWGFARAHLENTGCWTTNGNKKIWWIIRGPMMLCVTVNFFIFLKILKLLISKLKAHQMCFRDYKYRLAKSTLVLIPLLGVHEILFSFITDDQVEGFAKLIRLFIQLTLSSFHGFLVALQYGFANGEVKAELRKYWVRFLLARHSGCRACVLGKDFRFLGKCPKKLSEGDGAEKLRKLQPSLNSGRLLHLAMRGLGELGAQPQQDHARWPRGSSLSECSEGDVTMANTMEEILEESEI
Description: as §1

[16] = target: GLP-1R (WT) (Homo sapiens, UniProt P43220)
Chain of GLP-1R (WT) (P43220 24-463): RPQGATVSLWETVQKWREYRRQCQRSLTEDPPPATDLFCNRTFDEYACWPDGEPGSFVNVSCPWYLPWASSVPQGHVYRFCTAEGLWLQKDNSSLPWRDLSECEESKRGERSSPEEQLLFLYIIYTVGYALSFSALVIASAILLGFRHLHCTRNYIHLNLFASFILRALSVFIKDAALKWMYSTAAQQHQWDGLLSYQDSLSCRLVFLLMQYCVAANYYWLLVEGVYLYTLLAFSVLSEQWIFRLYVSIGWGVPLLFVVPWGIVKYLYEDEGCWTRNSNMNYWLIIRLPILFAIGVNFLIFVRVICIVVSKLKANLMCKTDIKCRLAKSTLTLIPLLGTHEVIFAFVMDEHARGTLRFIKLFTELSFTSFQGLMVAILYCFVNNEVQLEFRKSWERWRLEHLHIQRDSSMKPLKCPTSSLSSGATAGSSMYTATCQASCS

Molecule: chimeric GLP-2/GLP-1(1–6) (peptide)
peptide-induced cAMP accumulation for GLP-2R: fold decrease against native GLP-2 [1]: 12 fold

Molecule: GLP-2(3–33): truncated metabolite of GLP-2, partial agonist (DGSFSDEMNTILDNLAARDFINWLIQTKITD; Glucagon-like peptide 2; UniProt P01275 148-178, looked up, fragment)
type of agonism (in words) ([12]; GLP-2R): partial agonist | reduction in binding affinity (in words) ([12]; vs GLP-2): great reduction in binding affinity | reduction in potency (in words) ([12]; vs GLP-2): great reduction in binding affinity and potency

Molecule: CC[C@H](C)[C@H](NC(=O)[C@H](Cc1ccccc1)NC(=O)[C@H](CCC(=O)O)NC(=O)[C@H](CCCCN)NC(=O)[C@H](C)NC(=O)[C@H](C)NC(=O)[C@H](CCC(N)=O)NC(=O)CNC(=O)[C@H](CCC(=O)O)NC(=O)[C@H](CC(C)C)NC(=O)[C@H](Cc1ccc(O)cc1)NC(=O)[C@H](CO)NC(=O)[C@H](CO)NC(=O)[C@@H](NC(=O)[C@H](CC(=O)O)NC(=O)[C@H](CO)NC(=O)[C@@H](NC(=O)[C@H](Cc1ccccc1)NC(=O)[C@@H](NC(=O)CNC(=O)[C@H](CCC(=O)O)NC(=O)[C@H](C)NC(=O)[C@@H](N)Cc1c[nH]cn1)[C@@H](C)O)[C@@H](C)O)C(C)C)C(=O)N[C@@H](C)C(=O)N[C@@H](Cc1c[nH]c2ccccc12)C(=O)N[C@@H](CC(C)C)C(=O)N[C@H](C(=O)N[C@@H](CCCCN)C(=O)NCC(=O)N[C@@H](CCCNC(=N)N)C(=O)NCC(=O)O)C(C)C [GLP-1(1-31)]
EC50 [13]: 2.51 nM | Emax ([13]; HEK-293T, Table S5, R242E, HEK 293T, 30 min, RT, mean ± SEM, n ≥ 3 in duplicate, read-out: cAMP Emax (% WT)): -2.2 ± 0.9% | EC50 [14]: 2.51 nM | Emax ([14]; HEK-293T, Table S5, W249A, HEK 293T, 30 min, RT, mean ± SEM, n ≥ 3 in duplicate, read-out: cAMP Emax (% WT)): -2.4 ± 0.7% | EC50 [15]: 0.631 nM | Emax ([15]; HEK-293T, Table S5, Y252A, HEK 293T, 30 min, RT, mean ± SEM, n ≥ 3 in duplicate, read-out: cAMP Emax (% WT)): -0.7 ± 1.1%

Continued, values first:

Table S3: pEC50 of GLP-2-induced cAMP accumulation, HEK 293T cells transfected with the receptor (wild-type reference of the table) [2]: 10.4 -log M | Table S3: pEC50 of GLP-2-induced cAMP accumulation, HEK 293T cells transfected with the receptor mutant [3]: 9.8 -log M | Table S3: pEC50 of GLP-2-induced cAMP accumulation, HEK 293T cells transfected with the receptor mutant [4]: 9.1 -log M | Table S3: pEC50 of GLP-2-induced cAMP accumulation, HEK 293T cells transfected with the receptor mutant [5]: 7.2 -log M | Table S3: pEC50 of GLP-2-induced cAMP accumulation, HEK 293T cells transfected with the receptor mutant [6]: 9.8 -log M | Table S5: pEC50 of GLP-2(1-33)-induced cAMP accumulation, cells transfected with the receptor (wild-type reference of the table) [7]: 10.8 -log M | Table S5: pEC50 of GLP-2(1-33)-induced cAMP accumulation, cells transfected with the receptor mutant [8]: 9.9 -log M | Table S5: pEC50 of GLP-2(1-33)-induced cAMP accumulation, cells transfected with the receptor mutant [9]: 9.6 -log M | Table S5: pEC50 of GLP-2(1-33)-induced cAMP accumulation, cells transfected with the receptor mutant [10]: 7.4 -log M | Table S5: pEC50 of GLP-2(1-33)-induced cAMP accumulation, cells transfected with the receptor mutant [11]: 10.1 -log M
Molecule: Human GLP-2(1-33) (peptide)

peptide-induced cAMP accumulation for GLP-2R: fold reduction of potency [1]: 17 fold
Molecule: chimeric GLP-2/GLP-1(20–33) (peptide)

Table S5: pEC50 of cAMP accumulation induced by the chimeric peptide (7-19), cells transfected with GLP-1R (WT) [16]: 10.9 -log M | Table S5: pEC50 of cAMP accumulation induced by the chimeric peptide (7-19), cells transfected with GLP-2R (WT) [7]: 8.5 -log M
Molecule: HADGSFTSDVSSYLEGQAARDFINWLIQTKITD [chimeric GLP-2/GLP-1(7-19)]
